In US20140213513A1 (Sanofi, priority 2012, published 2014):
*1 amine or outer side, *2 acyl side, *3 side chain or, on linkers, in order; H or OH if unused. Where no end group is shown, it is not given here. Side-chain parts run from the residue outwards. [ ]: non-standard residue; d: D form. The star is where a group is joined. γGlu = O=C(O)[C@H](CCC(=O)[*:2])N[*:1]; Stearoyl = CCCCCCCCCCCCCCCCCC(=O)*; Palmitoyl = CCCCCCCCCCCCCCCC(=O)*; Aib = CC(C)(N)C(=O)O

B1: exendin-4 peptide analogue SEQ ID NO: 66 (peptide)
peptide: Y[Aib]QGTFTSDLSKQK([γGlu-Palmitoyl])DSRAAQDFIEWLKAGGPSSGAPPPS-NH2
modifications: N-terminus assumed
SMILES: CCCCCCCCCCCCCCCC(=O)N[C@@H](CCC(=O)NCCCC[C@H](NC(=O)[C@H](CCC(N)=O)NC(=O)[C@H](CCCCN)NC(=O)[C@H](CO)NC(=O)[C@H](CC(C)C)NC(=O)[C@H](CC(=O)O)NC(=O)[C@H](CO)NC(=O)[C@@H](NC(=O)[C@H](Cc1ccccc1)NC(=O)[C@@H](NC(=O)CNC(=O)[C@H](CCC(N)=O)NC(=O)C(C)(C)NC(=O)[C@@H](N)Cc1ccc(O)cc1)[C@@H](C)O)[C@@H](C)O)C(=O)N[C@@H](CC(=O)O)C(=O)N[C@@H](CO)C(=O)N[C@@H](CCCNC(=N)N)C(=O)N[C@@H](C)C(=O)N[C@@H](C)C(=O)N[C@@H](CCC(N)=O)C(=O)N[C@@H](CC(=O)O)C(=O)N[C@@H](Cc1ccccc1)C(=O)N[C@H](C(=O)N[C@@H](CCC(=O)O)C(=O)N[C@@H](Cc1c[nH]c2ccccc12)C(=O)N[C@@H](CC(C)C)C(=O)N[C@@H](CCCCN)C(=O)N[C@@H](C)C(=O)NCC(=O)NCC(=O)N1CCC[C@H]1C(=O)N[C@@H](CO)C(=O)N[C@@H](CO)C(=O)NCC(=O)N[C@@H](C)C(=O)N1CCC[C@H]1C(=O)N1CCC[C@H]1C(=O)N1CCC[C@H]1C(=O)N[C@@H](CO)C(N)=O)[C@@H](C)CC)C(=O)O
B2: exendin-4 peptide analogue SEQ ID NO: 14 (peptide)
peptide: Y[Aib]QGTFTSDLSIQK([γGlu-Palmitoyl])EKRAA[Aib]EFIEWLKA[dA]GPSSGAPPPS-NH2
modifications: N-terminus assumed
SMILES: CCCCCCCCCCCCCCCC(=O)N[C@@H](CCC(=O)NCCCC[C@H](NC(=O)[C@H](CCC(N)=O)NC(=O)[C@@H](NC(=O)[C@H](CO)NC(=O)[C@H](CC(C)C)NC(=O)[C@H](CC(=O)O)NC(=O)[C@H](CO)NC(=O)[C@@H](NC(=O)[C@H](Cc1ccccc1)NC(=O)[C@@H](NC(=O)CNC(=O)[C@H](CCC(N)=O)NC(=O)C(C)(C)NC(=O)[C@@H](N)Cc1ccc(O)cc1)[C@@H](C)O)[C@@H](C)O)[C@@H](C)CC)C(=O)N[C@@H](CCC(=O)O)C(=O)N[C@@H](CCCCN)C(=O)N[C@@H](CCCNC(=N)N)C(=O)N[C@@H](C)C(=O)N[C@@H](C)C(=O)NC(C)(C)C(=O)N[C@@H](CCC(=O)O)C(=O)N[C@@H](Cc1ccccc1)C(=O)N[C@H](C(=O)N[C@@H](CCC(=O)O)C(=O)N[C@@H](Cc1c[nH]c2ccccc12)C(=O)N[C@@H](CC(C)C)C(=O)N[C@@H](CCCCN)C(=O)N[C@@H](C)C(=O)N[C@H](C)C(=O)NCC(=O)N1CCC[C@H]1C(=O)N[C@@H](CO)C(=O)N[C@@H](CO)C(=O)NCC(=O)N[C@@H](C)C(=O)N1CCC[C@H]1C(=O)N1CCC[C@H]1C(=O)N1CCC[C@H]1C(=O)N[C@@H](CO)C(N)=O)[C@@H](C)CC)C(=O)O
B3: exendin-4 peptide analogue SEQ ID NO: 12 (peptide)
peptide: Y[Aib]QGTFTSDLSIQK([γGlu-Palmitoyl])EKAAA[Aib]EFIEWLKNTGPSSGAPPPS-NH2
modifications: N-terminus assumed
SMILES: CCCCCCCCCCCCCCCC(=O)N[C@@H](CCC(=O)NCCCC[C@H](NC(=O)[C@H](CCC(N)=O)NC(=O)[C@@H](NC(=O)[C@H](CO)NC(=O)[C@H](CC(C)C)NC(=O)[C@H](CC(=O)O)NC(=O)[C@H](CO)NC(=O)[C@@H](NC(=O)[C@H](Cc1ccccc1)NC(=O)[C@@H](NC(=O)CNC(=O)[C@H](CCC(N)=O)NC(=O)C(C)(C)NC(=O)[C@@H](N)Cc1ccc(O)cc1)[C@@H](C)O)[C@@H](C)O)[C@@H](C)CC)C(=O)N[C@@H](CCC(=O)O)C(=O)N[C@@H](CCCCN)C(=O)N[C@@H](C)C(=O)N[C@@H](C)C(=O)N[C@@H](C)C(=O)NC(C)(C)C(=O)N[C@@H](CCC(=O)O)C(=O)N[C@@H](Cc1ccccc1)C(=O)N[C@H](C(=O)N[C@@H](CCC(=O)O)C(=O)N[C@@H](Cc1c[nH]c2ccccc12)C(=O)N[C@@H](CC(C)C)C(=O)N[C@@H](CCCCN)C(=O)N[C@@H](CC(N)=O)C(=O)N[C@H](C(=O)NCC(=O)N1CCC[C@H]1C(=O)N[C@@H](CO)C(=O)N[C@@H](CO)C(=O)NCC(=O)N[C@@H](C)C(=O)N1CCC[C@H]1C(=O)N1CCC[C@H]1C(=O)N1CCC[C@H]1C(=O)N[C@@H](CO)C(N)=O)[C@@H](C)O)[C@@H](C)CC)C(=O)O
B4: exendin-4 peptide analogue SEQ ID NO: 13 (peptide)
peptide: Y[Aib]QGTFTSDLSIQK([γGlu-Palmitoyl])EKRYA[Aib]EFIEWLKNTGPSSGAPPPS-NH2
modifications: N-terminus assumed
SMILES: CCCCCCCCCCCCCCCC(=O)N[C@@H](CCC(=O)NCCCC[C@H](NC(=O)[C@H](CCC(N)=O)NC(=O)[C@@H](NC(=O)[C@H](CO)NC(=O)[C@H](CC(C)C)NC(=O)[C@H](CC(=O)O)NC(=O)[C@H](CO)NC(=O)[C@@H](NC(=O)[C@H](Cc1ccccc1)NC(=O)[C@@H](NC(=O)CNC(=O)[C@H](CCC(N)=O)NC(=O)C(C)(C)NC(=O)[C@@H](N)Cc1ccc(O)cc1)[C@@H](C)O)[C@@H](C)O)[C@@H](C)CC)C(=O)N[C@@H](CCC(=O)O)C(=O)N[C@@H](CCCCN)C(=O)N[C@@H](CCCNC(=N)N)C(=O)N[C@@H](Cc1ccc(O)cc1)C(=O)N[C@@H](C)C(=O)NC(C)(C)C(=O)N[C@@H](CCC(=O)O)C(=O)N[C@@H](Cc1ccccc1)C(=O)N[C@H](C(=O)N[C@@H](CCC(=O)O)C(=O)N[C@@H](Cc1c[nH]c2ccccc12)C(=O)N[C@@H](CC(C)C)C(=O)N[C@@H](CCCCN)C(=O)N[C@@H](CC(N)=O)C(=O)N[C@H](C(=O)NCC(=O)N1CCC[C@H]1C(=O)N[C@@H](CO)C(=O)N[C@@H](CO)C(=O)NCC(=O)N[C@@H](C)C(=O)N1CCC[C@H]1C(=O)N1CCC[C@H]1C(=O)N1CCC[C@H]1C(=O)N[C@@H](CO)C(N)=O)[C@@H](C)O)[C@@H](C)CC)C(=O)O
B5: exendin-4 peptide analogue SEQ ID NO: 15 (peptide)
peptide: Y[Aib]QGTFTSDLSIQK([γGlu-Palmitoyl])EQRAA[Aib]EFIEWLKNTGPSSGAPPPS-NH2
modifications: N-terminus assumed
SMILES: CCCCCCCCCCCCCCCC(=O)N[C@@H](CCC(=O)NCCCC[C@H](NC(=O)[C@H](CCC(N)=O)NC(=O)[C@@H](NC(=O)[C@H](CO)NC(=O)[C@H](CC(C)C)NC(=O)[C@H](CC(=O)O)NC(=O)[C@H](CO)NC(=O)[C@@H](NC(=O)[C@H](Cc1ccccc1)NC(=O)[C@@H](NC(=O)CNC(=O)[C@H](CCC(N)=O)NC(=O)C(C)(C)NC(=O)[C@@H](N)Cc1ccc(O)cc1)[C@@H](C)O)[C@@H](C)O)[C@@H](C)CC)C(=O)N[C@@H](CCC(=O)O)C(=O)N[C@@H](CCC(N)=O)C(=O)N[C@@H](CCCNC(=N)N)C(=O)N[C@@H](C)C(=O)N[C@@H](C)C(=O)NC(C)(C)C(=O)N[C@@H](CCC(=O)O)C(=O)N[C@@H](Cc1ccccc1)C(=O)N[C@H](C(=O)N[C@@H](CCC(=O)O)C(=O)N[C@@H](Cc1c[nH]c2ccccc12)C(=O)N[C@@H](CC(C)C)C(=O)N[C@@H](CCCCN)C(=O)N[C@@H](CC(N)=O)C(=O)N[C@H](C(=O)NCC(=O)N1CCC[C@H]1C(=O)N[C@@H](CO)C(=O)N[C@@H](CO)C(=O)NCC(=O)N[C@@H](C)C(=O)N1CCC[C@H]1C(=O)N1CCC[C@H]1C(=O)N1CCC[C@H]1C(=O)N[C@@H](CO)C(N)=O)[C@@H](C)O)[C@@H](C)CC)C(=O)O
B6: exendin-4 peptide analogue SEQ ID NO: 64 (peptide)
peptide: Y[Aib]EGTFTSDLSIQK([γGlu-Stearoyl])EERAVRLFIEWLKAGGPSSGAPPPS-NH2
modifications: N-terminus assumed
SMILES: CCCCCCCCCCCCCCCCCC(=O)N[C@@H](CCC(=O)NCCCC[C@H](NC(=O)[C@H](CCC(N)=O)NC(=O)[C@@H](NC(=O)[C@H](CO)NC(=O)[C@H](CC(C)C)NC(=O)[C@H](CC(=O)O)NC(=O)[C@H](CO)NC(=O)[C@@H](NC(=O)[C@H](Cc1ccccc1)NC(=O)[C@@H](NC(=O)CNC(=O)[C@H](CCC(=O)O)NC(=O)C(C)(C)NC(=O)[C@@H](N)Cc1ccc(O)cc1)[C@@H](C)O)[C@@H](C)O)[C@@H](C)CC)C(=O)N[C@@H](CCC(=O)O)C(=O)N[C@@H](CCC(=O)O)C(=O)N[C@@H](CCCNC(=N)N)C(=O)N[C@@H](C)C(=O)N[C@H](C(=O)N[C@@H](CCCNC(=N)N)C(=O)N[C@@H](CC(C)C)C(=O)N[C@@H](Cc1ccccc1)C(=O)N[C@H](C(=O)N[C@@H](CCC(=O)O)C(=O)N[C@@H](Cc1c[nH]c2ccccc12)C(=O)N[C@@H](CC(C)C)C(=O)N[C@@H](CCCCN)C(=O)N[C@@H](C)C(=O)NCC(=O)NCC(=O)N1CCC[C@H]1C(=O)N[C@@H](CO)C(=O)N[C@@H](CO)C(=O)NCC(=O)N[C@@H](C)C(=O)N1CCC[C@H]1C(=O)N1CCC[C@H]1C(=O)N1CCC[C@H]1C(=O)N[C@@H](CO)C(N)=O)[C@@H](C)CC)C(C)C)C(=O)O

The binders below were run against T1, human GIP receptor (human, UniProt P48546 22-466) (assay: cell-based or functional assay).
T1 sequence (looked up): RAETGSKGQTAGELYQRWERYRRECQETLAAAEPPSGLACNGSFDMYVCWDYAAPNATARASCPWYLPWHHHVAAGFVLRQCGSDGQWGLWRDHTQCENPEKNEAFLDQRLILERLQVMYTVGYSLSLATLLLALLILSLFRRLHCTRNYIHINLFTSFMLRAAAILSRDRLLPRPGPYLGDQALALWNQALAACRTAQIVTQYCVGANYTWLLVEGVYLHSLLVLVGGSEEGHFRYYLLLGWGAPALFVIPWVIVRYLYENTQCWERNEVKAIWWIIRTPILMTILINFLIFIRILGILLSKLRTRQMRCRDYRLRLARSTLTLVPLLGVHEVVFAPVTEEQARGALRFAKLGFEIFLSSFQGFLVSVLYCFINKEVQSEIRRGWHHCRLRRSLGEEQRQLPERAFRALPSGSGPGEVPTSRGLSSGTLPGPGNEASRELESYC
B1 was tested, and the “EC50 hGIP R” value was 82.6 pM.
B2 was tested, and the “EC50 hGIP R” value was 6.2 pM.
For B3, the “EC50 hGIP R” value was 8 pM.
In the case of B4, the “EC50 hGIP R” value is reported as 26.3 pM.
With B5 the “EC50 hGIP R” value was 11.4 pM.
B6 was tested, and the “EC50 hGIP R” value was 9.6 pM.

The binders below were run against human glucagon receptor (human, UniProt P47871 26-477) (assay: cell-based or functional assay).
Chain of human glucagon receptor (P47871 26-477): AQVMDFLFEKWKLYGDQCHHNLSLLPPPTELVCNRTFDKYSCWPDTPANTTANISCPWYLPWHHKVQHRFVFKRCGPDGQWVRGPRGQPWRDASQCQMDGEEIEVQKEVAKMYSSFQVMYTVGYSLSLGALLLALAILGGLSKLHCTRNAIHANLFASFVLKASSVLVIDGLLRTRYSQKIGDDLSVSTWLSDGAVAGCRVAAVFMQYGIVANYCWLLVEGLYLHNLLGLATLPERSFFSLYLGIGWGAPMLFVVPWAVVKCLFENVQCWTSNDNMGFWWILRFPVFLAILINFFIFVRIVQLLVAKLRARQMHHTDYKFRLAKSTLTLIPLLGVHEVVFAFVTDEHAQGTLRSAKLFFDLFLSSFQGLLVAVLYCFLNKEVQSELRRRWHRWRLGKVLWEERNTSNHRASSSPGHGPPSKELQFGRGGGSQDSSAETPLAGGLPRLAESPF
In the case of B1, the “EC50 hGLUC R” value is reported as 5.2 pM.
For B2, the “EC50 hGLUC R” value was 62.3 pM.
With B3 the “EC50 hGLUC R” value was 139 pM.
For B4, the “EC50 hGLUC R” value was 20.2 pM.
For B5, the “EC50 hGLUC R” value was 54 pM.
B6 was tested, and the “EC50 hGLUC R” value was 75100 pM.

These binders were tested against human GLP-1 receptor (human, UniProt P43220 24-463) (assay: cell-based or functional assay).
In the case of B1, the “EC50 hGLP-1 R” value is reported as 3.6 pM.
With B2 the “EC50 hGLP-1 R” value was 6.5 pM.
In the case of B3, the “EC50 hGLP-1 R” value is reported as 5.5 pM.
With B4 the “EC50 hGLP-1 R” value was 14.1 pM.
With B5 the “EC50 hGLP-1 R” value was 6.9 pM.
With B6 the “EC50 hGLP-1 R” value was 10.2 pM.
